The supplement of paper PMC10724198
± gives the standard deviation of the averaged measurements.

Test system: Saccharomyces cerevisiae
Experiment: protein stability index of tFT-peptide fusion (C-terminal peptide) (PSI (0-1 scale)); higher = more stable (slower turnover)
Settings: temperature: 30 C
Method: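 MPS profiling in S. cerevisiae of the yeast C-terminome library: the last 12 aa of each annotated ORF are fused to the C-terminus of a sfGFP-mCherry timer, after a GGGS linker. Cells are FACS-sorted into 8 mCherry/sfGFP bins and deep-sequenced. PSI runs from 0 (unstable) to 1 (stable); wild type and das1Δ backgrounds, two technical replicates each.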

[1] = genetic background: das1 deletion

SGGVLDSGDVSL [YGR182C C-terminal 12 aa]
protein stability index [1]: 0.684 ± 0.022 | protein stability index (genetic background: wild type): 0.661 ± 0.029

SHAALGNETNSL [YHR052C-B C-terminal 12 aa]
protein stability index [1]: 0.6826 ± 0.0062 | protein stability index (genetic background: wild type): 0.684 ± 0.034

SIIDKELENIDS [SGD1 C-terminal 12 aa]
protein stability index [1]: 0.731 ± 0.027 | protein stability index (genetic background: wild type): 0.681 ± 0.018

SKGAQKRKNAKK [SHR3 C-terminal 12 aa]
protein stability index [1]: 0.682 ± 0.009 | protein stability index (genetic background: wild type): 0.66 ± 0.022

SKKDYSIDSVEM [TPO2 C-terminal 12 aa]
protein stability index [1]: 0.698 ± 0.0055 | protein stability index (genetic background: wild type): 0.677 ± 0.014

SKRVYSICHYEF [ABM1 C-terminal 12 aa]
protein stability index [1]: 0.693 ± 0.018 | protein stability index (genetic background: wild type): 0.695 ± 0.012

SKVNSTRLVSRK [KAR3 C-terminal 12 aa]
protein stability index [1]: 0.6908 ± 0.0058 | protein stability index (genetic background: wild type): 0.723 ± 0.014

SLEHFIDSVSSL [TRP4 C-terminal 12 aa]
protein stability index [1]: 0.7199 ± 0.0016 | protein stability index (genetic background: wild type): 0.672 ± 0.013

SLIDAKTGLPKE [MVD1 C-terminal 12 aa]
protein stability index [1]: 0.6964 ± 0.004 | protein stability index (genetic background: wild type): 0.706 ± 0.042

SLVKTHNSSLCK [IAI11 C-terminal 12 aa]
protein stability index [1]: 0.663 ± 0.026 | protein stability index (genetic background: wild type): 0.689 ± 0.095

SNYGGNSTWGGH [SPT5 C-terminal 12 aa]
protein stability index [1]: 0.732 ± 0.11 | protein stability index (genetic background: wild type): 0.673 ± 0.16

SPELHTYETIYD [ROY1 C-terminal 12 aa]
protein stability index [1]: 0.752 ± 0.0093 | protein stability index (genetic background: wild type): 0.7694 ± 0.0053

SPEQLKVSLKWH [SKM1 C-terminal 12 aa]
protein stability index [1]: 0.718 ± 0.01 | protein stability index (genetic background: wild type): 0.699 ± 0.022

SPGEYEIGDMEN [YDR061W C-terminal 12 aa]
protein stability index [1]: 0.675 ± 0.016 | protein stability index (genetic background: wild type): 0.681 ± 0.048

SPVPTKKKGFLR [CDC3 C-terminal 12 aa]
protein stability index [1]: 0.705 ± 0.017 | protein stability index (genetic background: wild type): 0.684 ± 0.012

SQLPSLYAPSYY [SSU72 C-terminal 12 aa]
protein stability index [1]: 0.703 ± 0.02 | protein stability index (genetic background: wild type): 0.7264 ± 0.0056

SQTKSKQTLFTI [YPR142C C-terminal 12 aa]
protein stability index [1]: 0.722 ± 0.021 | protein stability index (genetic background: wild type): 0.695 ± 0.038

SQTQAGSAYYTK [YOR268C C-terminal 12 aa]
protein stability index [1]: 0.699 ± 0.026 | protein stability index (genetic background: wild type): 0.688 ± 0.025

SRGQNTHPSVDK [ESC1 C-terminal 12 aa]
protein stability index [1]: 0.699 ± 0.012 | protein stability index (genetic background: wild type): 0.692 ± 0.029

SRIYQTFTDPSN [ADY4 C-terminal 12 aa]
protein stability index [1]: 0.729 ± 0.024 | protein stability index (genetic background: wild type): 0.702 ± 0.061

SRKHTTRSGGRW [HOS3 C-terminal 12 aa]
protein stability index [1]: 0.695 ± 0.017 | protein stability index (genetic background: wild type): 0.6554 ± 0.00091

SSAHMSSNAIQR [CDC10 C-terminal 12 aa]
protein stability index [1]: 0.7077 ± 0.0023 | protein stability index (genetic background: wild type): 0.721 ± 0.016

SSESEAVKKAKS [CIC1 C-terminal 12 aa]
protein stability index [1]: 0.668 ± 0.031 | protein stability index (genetic background: wild type): 0.685 ± 0.062

SSKKTIQEEIYI [DPB2 C-terminal 12 aa]
protein stability index [1]: 0.698 ± 0.015 | protein stability index (genetic background: wild type): 0.741 ± 0.056

SSLARPSLFSSE [YBL077W C-terminal 12 aa]
protein stability index [1]: 0.735 ± 0.026 | protein stability index (genetic background: wild type): 0.714 ± 0.056

SSNEDKKGMCKL [IDP3 C-terminal 12 aa]
protein stability index [1]: 0.736 ± 0.048 | protein stability index (genetic background: wild type): 0.901 ± 0.037

SSNTVYDNILVT [YDR034C-A C-terminal 12 aa]
protein stability index [1]: 0.721 ± 0.037 | protein stability index (genetic background: wild type): 0.724 ± 0.028

SSSEQITSSITS [YAR062W C-terminal 12 aa]
protein stability index [1]: 0.71 ± 0.025 | protein stability index (genetic background: wild type): 0.67 ± 0.008

SSTDMNGQPIEF [SKA1 C-terminal 12 aa]
protein stability index [1]: 0.6884 ± 0.0061 | protein stability index (genetic background: wild type): 0.67 ± 0.015

SSVRTLDSNIWR [ISC10 C-terminal 12 aa]
protein stability index [1]: 0.7128 ± 0.0013 | protein stability index (genetic background: wild type): 0.686 ± 0.024

SSVVSRVSRSCR [YAR060C C-terminal 12 aa]
protein stability index [1]: 0.7343 ± 0.0019 | protein stability index (genetic background: wild type): 0.668 ± 0.043

SSWISKHSSVTD [YDL109C C-terminal 12 aa]
protein stability index [1]: 0.696 ± 0.0068 | protein stability index (genetic background: wild type): 0.6859 ± 0.002

STKFLRSFGQTI [SWP1 C-terminal 12 aa]
protein stability index [1]: 0.70697 ± 0.0003 | protein stability index (genetic background: wild type): 0.686 ± 0.012

STKTVPLNFLFL [YDL050C C-terminal 12 aa]
protein stability index [1]: 0.724 ± 0.01 | protein stability index (genetic background: wild type): 0.677 ± 0.032

STMQERFAESTD [VMA1 C-terminal 12 aa]
protein stability index [1]: 0.682 ± 0.011 | protein stability index (genetic background: wild type): 0.706 ± 0.032

SVENIFMIWFFY [YJL022W C-terminal 12 aa]
protein stability index [1]: 0.5089 ± 0.0034 | protein stability index (genetic background: wild type): 0.494 ± 0.011

SVHPLIISYSQL [TRM732 C-terminal 12 aa]
protein stability index [1]: 0.716 ± 0.05 | protein stability index (genetic background: wild type): 0.637 ± 0.024

SVVSQPPPGYEQ [HSE1 C-terminal 12 aa]
protein stability index [1]: 0.7102 ± 0.0066 | protein stability index (genetic background: wild type): 0.667 ± 0.02

SVYQPFFALCGL [YDR355C C-terminal 12 aa]
protein stability index [1]: 0.6756 ± 0.0066 | protein stability index (genetic background: wild type): 0.645 ± 0.017

SYRLGKNAAEGK [CAP1 C-terminal 12 aa]
protein stability index [1]: 0.685 ± 0.017 | protein stability index (genetic background: wild type): 0.663 ± 0.025

TAPLGKALHDLS [REE1 C-terminal 12 aa]
protein stability index [1]: 0.687 ± 0.059 | protein stability index (genetic background: wild type): 0.72 ± 0.059
